The values that follow come from patent CN115141270A (SHENZHEN KANGMAI BIOTECHNOLOGY CO LTD, dated 2022).

For assay [1], the target named is SARS-CoV-2 东南亚株 (MW341443) live virus, spike glycoprotein (SARS-CoV-2). Briefly: cell-based or functional assay.
Assay [2] deals with SARS-CoV-2 英国流行株 (MW255832) live virus, spike glycoprotein (SARS-CoV-2). Briefly: cell-based or functional assay.

B1: 抗体nCoV617 (anti-coronavirus spike glycoprotein human monoclonal antibody) (antibody, V domains shown)
VH: QVQLVESGGGVVQPGRSLRLSCAASGFTFSSYAMHWVRQAPGKGLEWVALISYDGSNKYYADSVKGRFTISRDNSKNTLYLQMNSLRAEDTAVYYCARGLGLRFLEWPISSYWGQGTLVTVSS
VL: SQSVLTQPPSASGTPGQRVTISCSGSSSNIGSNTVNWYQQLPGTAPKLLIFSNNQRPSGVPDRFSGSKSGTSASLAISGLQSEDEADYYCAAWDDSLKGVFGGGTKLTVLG
notes: also called 抗S蛋白抗体; 抗冠状病毒刺突糖蛋白单克隆抗体
Turning to B1, the “IC50 (neutralisation of live virus on Vero E6 cells, cytopathic effect)” value in assay [1] is 0.87 µg/mL; in assay [2], 1.1 µg/mL.
